Data reported in the supplement of paper PMC10567573.

B1: ETS1 (parent)
chain: YVRDRADLNKDKPVIPAAALAGYT

Variants of: B1
Assay: protein stability index of a GFP-peptide fusion (GPS, HEK-293T) (PSI 1-6); higher = more stable
Settings: c terminus: a fixed tail appended
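Also: lentivirally expressed fusions sorted by FACS into six bins by GFP to DsRed ratio, PSI derived from sequencing read proportions per bin multiplied by bin number.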

| Variant | protein stability index |
| --- | --- |
| YVRDRADLNKDDPVIPAAALAGYT [K12D] | 2.04 |
| YVRDRADLNKDNPVIPAAALAGYT [K12N] | 2.29 |
| YVRDRADLNKDQPVIPAAALAGYT [K12Q] | 2.48 |
| YVRDRADLNKDTPVIPAAALAGYT [K12T] | 2.02 |
| YVRDRADLNKDWPVIPAAALAGYT [K12W] | 2.43 |
| YVRDRADLNKDFPVIPAAALAGYT [K12F] | 2.1 |
| YVRDRADLNKDGPVIPAAALAGYT [K12G] | 2.17 |
| YVRDRADLNKDHPVIPAAALAGYT [K12H] | 2.29 |
| YVRDRADLNKDLPVIPAAALAGYT [K12L] | 2.47 |
| YVRDRADLNKDYPVIPAAALAGYT [K12Y] | 1.94 |
| YVRDRADLNKDRPVIPAAALAGYT [K12R] | 2.08 |
| YVRDRADLNKDSPVIPAAALAGYT [K12S] | 2.48 |
| YVRDRADLNKDVPVIPAAALAGYT [K12V] | 2.47 |
| YVRDRADLNKDEPVIPAAALAGYT [K12E] | 1.79 |
| YVRDRADLNKDAPVIPAAALAGYT [K12A] | 2.39 |
| YVRDRADLNKDMPVIPAAALAGYT [K12M] | 1.9 |
| YVRDRADLNKDPPVIPAAALAGYT [K12P] | 1.95 |
| YVRDRADLNKDIPVIPAAALAGYT [K12I] | 2.19 |
| YVRDRADLNKDCPVIPAAALAGYT [K12C] | 2.13 |
| YVRDRADLNYDKPVIPAAALAGYT [K10Y] | 1.97 |
| YVRDRADLNWDKPVIPAAALAGYT [K10W] | 2.19 |
| YVRDRADLNLDKPVIPAAALAGYT [K10L] | 2.62 |
| YVRDRADLNCDKPVIPAAALAGYT [K10C] | 2.75 |
| YVRDRADLNEDKPVIPAAALAGYT [K10E] | 1.88 |

| Variant | protein stability index |
| --- | --- |
| YVRDRADLNHDKPVIPAAALAGYT [K10H] | 2.18 |
| YVRDRADLNMDKPVIPAAALAGYT [K10M] | 2.32 |
| YVRDRADLNSDKPVIPAAALAGYT [K10S] | 1.59 |
| YVRDRADLNTDKPVIPAAALAGYT [K10T] | 2.67 |
| YVRDRADLNPDKPVIPAAALAGYT [K10P] | 2.6 |
| YVRDRADLNVDKPVIPAAALAGYT [K10V] | 1.55 |
| YVRDRADLNDDKPVIPAAALAGYT [K10D] | 2.58 |
| YVRDRADLNRDKPVIPAAALAGYT [K10R] | 2.24 |
| YVRDRADLNGDKPVIPAAALAGYT [K10G] | 2.97 |
| YVRDRADLNNDKPVIPAAALAGYT [K10N] | 2.08 |
| YVRDRADLNIDKPVIPAAALAGYT [K10I] | 2.23 |
| YVRDRADLNFDKPVIPAAALAGYT [K10F] | 3.25 |
| YVRDRADLNQDKPVIPAAALAGYT [K10Q] | 2.55 |
| YVRDRADLNADKPVIPAAALAGYT [K10A] | 2.58 |
| YVRDRADLNKDKCVIPAAALAGYT [P13C] | 1.8 |
| YVRDRADLNKDKAVIPAAALAGYT [P13A] | 1.53 |
| YVRDRADLNKDKFVIPAAALAGYT [P13F] | 2.85 |
| YVRDRADLNKDKGVIPAAALAGYT [P13G] | 2.23 |
| YVRDRADLNKDKEVIPAAALAGYT [P13E] | 1.74 |
| YVRDRADLNKDKDVIPAAALAGYT [P13D] | 1.63 |
| YVRDRANLNKDKPVIPAAALAGYT [D7N] | 2.98 |
| YVRDRACLNKDKPVIPAAALAGYT [D7C] | 2.17 |
| YVRDRAMLNKDKPVIPAAALAGYT [D7M] | 2.6 |
| YVRDRASLNKDKPVIPAAALAGYT [D7S] | 1.72 |

| Variant | protein stability index |
| --- | --- |
| YVRDRAILNKDKPVIPAAALAGYT [D7I] | 3.04 |
| YVRDRAVLNKDKPVIPAAALAGYT [D7V] | 3.53 |
| YVRDRATLNKDKPVIPAAALAGYT [D7T] | 3.92 |
| YVRDRAGLNKDKPVIPAAALAGYT [D7G] | 2.56 |
| YVRDRALLNKDKPVIPAAALAGYT [D7L] | 2.51 |
| YVRDRAHLNKDKPVIPAAALAGYT [D7H] | 2.91 |
| YVRDRAELNKDKPVIPAAALAGYT [D7E] | 2.37 |
| YVRDRAKLNKDKPVIPAAALAGYT [D7K] | 2.99 |
| YVRDRAPLNKDKPVIPAAALAGYT [D7P] | 3.16 |
| YVRDRAFLNKDKPVIPAAALAGYT [D7F] | 2.17 |
| YVRDRAQLNKDKPVIPAAALAGYT [D7Q] | 2.77 |
| YVRDRAWLNKDKPVIPAAALAGYT [D7W] | 2.52 |
| YVRDRAYLNKDKPVIPAAALAGYT [D7Y] | 2.37 |
| YVRDRARLNKDKPVIPAAALAGYT [D7R] | 3.02 |
| YVRDRAALNKDKPVIPAAALAGYT [D7A] | 2.05 |
| YVRRRADLNKDKPVIPAAALAGYT [D4R] | 2.1 |
| YVRLRADLNKDKPVIPAAALAGYT [D4L] | 2.03 |
| YVRGRADLNKDKPVIPAAALAGYT [D4G] | 2.47 |
| YVRFRADLNKDKPVIPAAALAGYT [D4F] | 2.32 |
| YVRPRADLNKDKPVIPAAALAGYT [D4P] | 2.24 |
| YVRTRADLNKDKPVIPAAALAGYT [D4T] | 3.02 |
| YVRWRADLNKDKPVIPAAALAGYT [D4W] | 1.83 |
| YVRERADLNKDKPVIPAAALAGYT [D4E] | 1.79 |
| YVRMRADLNKDKPVIPAAALAGYT [D4M] | 3.45 |

| Variant | protein stability index |
| --- | --- |
| YVRQRADLNKDKPVIPAAALAGYT [D4Q] | 1.57 |
| YVRARADLNKDKPVIPAAALAGYT [D4A] | 2.68 |
| YVRCRADLNKDKPVIPAAALAGYT [D4C] | 3.5 |
| YVRIRADLNKDKPVIPAAALAGYT [D4I] | 2.05 |
| YVRYRADLNKDKPVIPAAALAGYT [D4Y] | 3.23 |
| YVRNRADLNKDKPVIPAAALAGYT [D4N] | 3.01 |
| YVRHRADLNKDKPVIPAAALAGYT [D4H] | 1.94 |
| YVRSRADLNKDKPVIPAAALAGYT [D4S] | 1.77 |
| YVRKRADLNKDKPVIPAAALAGYT [D4K] | 2.07 |
| YVRDTADLNKDKPVIPAAALAGYT [R5T] | 2.02 |
| YVRDLADLNKDKPVIPAAALAGYT [R5L] | 1.82 |
| YVRDGADLNKDKPVIPAAALAGYT [R5G] | 2.24 |
| YVRDAADLNKDKPVIPAAALAGYT [R5A] | 2.12 |
| YVRDEADLNKDKPVIPAAALAGYT [R5E] | 2.36 |
| YVRDWADLNKDKPVIPAAALAGYT [R5W] | 2.48 |
| YVRDHADLNKDKPVIPAAALAGYT [R5H] | 1.95 |
| YVRDYADLNKDKPVIPAAALAGYT [R5Y] | 2.7 |
| YVRDIADLNKDKPVIPAAALAGYT [R5I] | 3.08 |
| YVRDNADLNKDKPVIPAAALAGYT [R5N] | 1.94 |
| YVRDMADLNKDKPVIPAAALAGYT [R5M] | 1.56 |
| YVRDQADLNKDKPVIPAAALAGYT [R5Q] | 1.57 |
| YVRDSADLNKDKPVIPAAALAGYT [R5S] | 2.23 |
